B1: BBSome complex member BBS4 (Homo sapiens), Q96RK4 (parent)
chain: MAEERVATRTQFPVSTESQKPRQKKAPEFPILEKQNWLIHLHYIRKDYEACKAVIKEQLQETQGLCEYAIYVQALIFRLEGNIQESLELFQTCAVLSPQSADNLKQVARSLFLLGKHKAAIEVYNEAAKLNQKDWEISHNLGVCYIYLKQFNKAQDQLHNALNLNRHDLTYIMLGKIHLLEGDLDKAIEVYKKAVEFSPENTELLTTLGLLYLQLGIYQKAFEHLGNALTYDPTNYKAILAAGSMMQTHGDFDVALTKYRVVACAVPESPPLWNNIGMCFFGKKKYVAAISCLKRANYLAPFDWKILYNLGLVHLTMQQYASAFHFLSAAINFQPKMGELYMLLAVALTNLEDIENAKRAYAEAVHLDKCNPLVNLNYAVLLYNQGEKKNALAQYQEMEKKVSLLKDNSSLEFDSEMVEMAQKLGAALQVGEALVWTKPVKDPKSKHQTTSTSKPASFQQPLGSNQALGQAMSSAAAYRTLPSGAGGTSQFTKPPSLPLEPEPAVESSPTETSEQIREK
partner: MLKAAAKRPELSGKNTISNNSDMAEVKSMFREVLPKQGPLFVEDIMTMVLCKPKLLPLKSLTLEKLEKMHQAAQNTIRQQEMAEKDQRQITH

Variants of: B1
Details: with bbip1_human BBIP1, A8MTZ0

Row | Variant | effect of a mutation on the interaction
1 | Y395E | with no effect
2 | S464E | with no effect
3 | F458A | with no effect
4 | F458K | with no effect
5 | L327A | with no effect
6 | S409E | with no effect
7 | V440K | with no effect
8 | R295K | with no effect
9 | G277E | with no effect
10 | G277K | with no effect
11 | A323T | disrupting interaction strength
12 | G469A | with no effect
13 | G469K | with no effect
14 | E511A | with no effect
15 | V346K | with no effect
16 | P372S | disrupting interaction strength
17 | E387G | disrupting interaction strength
18 | G338E | disrupting interaction strength
19 | C292E | with no effect
20 | A347D | disrupting interaction strength
21 | A347E | with no effect
22 | M420A | with no effect
23 | V418E | with no effect
24 | S489K | with no effect
25 | F326S | disrupting interaction strength
26 | E363A | with no effect

Row | Variant | effect of a mutation on the interaction
27 | W436A | with no effect
28 | M417E | with no effect
29 | M417K | with no effect
30 | M417A | with no effect
31 | A296K | with no effect
32 | P455E | with no effect
33 | A289K | with no effect
34 | Q394A | with no effect
35 | Q394E | with no effect
36 | L462K | with no effect
37 | K441A | with no effect
38 | S483K | with no effect
39 | Q459K | with no effect
40 | F413A | with no effect
41 | F413K | with no effect
42 | E268K | with no effect
43 | A471E | with no effect
44 | L404A | with no effect
45 | L434E | with no effect
46 | L434A | with no effect
47 | A300E | with no effect
48 | E432A | with no effect
49 | A329K | with no effect
50 | K400E | with no effect
51 | K446E | with no effect
52 | H366E | with no effect

Row | Variant | effect of a mutation on the interaction
53 | Y286K | with no effect
54 | Q460K | with no effect
55 | Q460E | with no effect
56 | Q460A | with no effect
57 | K358E | with no effect
58 | E518K | with no effect
59 | L272K | with no effect
60 | Q318E | with no effect
61 | I306A | with no effect
62 | A357E | with no effect
63 | A379K | with no effect
64 | M472A | with no effect
65 | N384K | with no effect
66 | M278K | with no effect
67 | M278L | disrupting interaction strength
68 | G487K | with no effect
69 | K285E | with no effect
70 | K285A | with no effect
71 | A456K | with no effect
72 | A456E | with no effect
73 | G311A | with no effect
74 | G311K | with no effect
75 | M337K | with no effect
76 | K438E | with no effect
77 | P439A | with no effect
78 | V365A | with no effect

Row | Variant | effect of a mutation on the interaction
79 | K519A | with no effect
80 | N408E | with no effect
81 | T349E | with no effect
82 | T349K | with no effect
83 | T349A | with no effect
84 | T452A | with no effect
85 | Q466E | with no effect
86 | N465E | with no effect
87 | S403A | with no effect
88 | C279K | with no effect
89 | C279E | with no effect
90 | C279A | with no effect
91 | D442K | with no effect
92 | L373K | with no effect
93 | H447E | with no effect
94 | L481E | with no effect
95 | L424A | disrupting interaction strength
96 | S269A | with no effect
97 | S269K | with no effect
98 | S269E | with no effect
99 | V374A | with no effect
100 | Y341A | disrupting interaction strength
101 | Y341C | disrupting interaction strength
102 | D368K | with no effect
103 | S328A | with no effect
104 | F324K | with no effect

Row | Variant | effect of a mutation on the interaction
105 | E399A | with no effect
106 | H314K | with no effect
107 | H314E | with no effect
108 | P509A | with no effect
109 | P509K | with no effect
110 | T512A | with no effect
111 | R359A | with no effect
112 | L428P | disrupting interaction strength
113 | F281A | with no effect
114 | F281K | with no effect
115 | T450E | with no effect
116 | K389E | with no effect
117 | L344A | with no effect
118 | F491E | with no effect
119 | T437A | with no effect
120 | N390L | disrupting interaction strength
121 | N390A | with no effect
122 | L382P | disrupting interaction strength
123 | A330F | disrupting interaction strength
124 | P301E | with no effect
125 | P301K | with no effect
126 | L299E | with no effect
127 | L299K | with no effect
128 | Q385A | with no effect
129 | L381A | with no effect
130 | L381P | disrupting interaction strength

Row | Variant | effect of a mutation on the interaction
131 | N350D | disrupting interaction strength
132 | N350K | with no effect
133 | Y298A | with no effect
134 | Y298E | with no effect
135 | E506K | with no effect
136 | S496A | with no effect
137 | N371K | with no effect
138 | P495E | with no effect
139 | A467E | with no effect
140 | Q470E | with no effect
141 | S322E | with no effect
142 | S322A | with no effect
143 | K406E | with no effect
144 | F333K | with no effect
145 | K388E | with no effect
146 | R479E | with no effect
147 | R479K | with no effect
148 | L310S | disrupting interaction strength
149 | L310A | with no effect
150 | C370A | with no effect
151 | P443A | with no effect
152 | P443K | with no effect
153 | S451K | with no effect
154 | S451A | with no effect
155 | A426K | with no effect
156 | N309K | with no effect

Row | Variant | effect of a mutation on the interaction
157 | P482K | with no effect
158 | L343R | disrupting interaction strength
159 | L343K | with no effect
160 | L367K | with no effect
161 | T316E | with no effect
162 | A475E | with no effect
163 | V287A | with no effect
164 | P270A | with no effect
165 | P270K | with no effect
166 | L376E | with no effect
167 | L376K | with no effect
168 | Y361E | with no effect
169 | S410A | with no effect
170 | L499A | with no effect
171 | Q396K | with no effect
172 | L293E | with no effect
173 | L293K | with no effect
174 | Y478A | with no effect
175 | L392K | with no effect
176 | D353A | with no effect
177 | L468K | with no effect
178 | L468E | with no effect
